# Measurements reported in US20060057623.
# B1: SENP1 (Sentrin/SUMO-specific protease 1), wild-type (protein)
# chain: MDDIADRMRMDAGEVTLVNHNSVFKTHLLPQTGFPEDQLSLSDQQILSSRQGHLDRSFTCSTRSAAYNPSYYSDNPSSDSFLGSGDLRTFGQSANGQWRNSTPSSSSSLQKSRNSRSLYLETRKTSSGLSNSFAGKSNHHCHVSAYEKSFPIKPVPSPSWSGSCRRSLLSPKKTQRRHVSTAEETVQEEEREIYRQLLQMVTGKQFTIAKPTTHFPLHLSRCLSSSKNTLKDSLFKNGNSCASQIIGSDTSSSGSASILTNQEQLSHSVYSLSSYTPDVAFGSKDSGTLHHPHHHHSVPHQPDNLAASNTQSEGSDSVILLKVKDSQTPTPSSTFFQAELWIKELTSVYDSRARERLRQIEEQKALALQLQNQRLQEREHSVHDSVELHLRVPLEKEIPVTVVQETQKKGHKLTDSEDEFPEITEEMEKEIKNVFRNGNQDEVLSEAFRLTITRKDIQTLNHLNWLNDEIINFYMNMLMERSKEKGLPSVHAFNTFFFTKLKTAGYQAVKRWTKKVDVFSVDILLVPIHLGVHWCLAVVDFRKKNITYYDSMGGINNEACRILLQYLKQESIDKKRKEFDTNGWQLFSKKSQEIPQQMNGSDCGMFACKYADCITKDRPINFTQQHMPYFRKRMVWEILHRKLL
# Molecular target: HDAC1 (histone deacetylase 1), wild-type, Q13547
# Sequence (Q13547 whole entry): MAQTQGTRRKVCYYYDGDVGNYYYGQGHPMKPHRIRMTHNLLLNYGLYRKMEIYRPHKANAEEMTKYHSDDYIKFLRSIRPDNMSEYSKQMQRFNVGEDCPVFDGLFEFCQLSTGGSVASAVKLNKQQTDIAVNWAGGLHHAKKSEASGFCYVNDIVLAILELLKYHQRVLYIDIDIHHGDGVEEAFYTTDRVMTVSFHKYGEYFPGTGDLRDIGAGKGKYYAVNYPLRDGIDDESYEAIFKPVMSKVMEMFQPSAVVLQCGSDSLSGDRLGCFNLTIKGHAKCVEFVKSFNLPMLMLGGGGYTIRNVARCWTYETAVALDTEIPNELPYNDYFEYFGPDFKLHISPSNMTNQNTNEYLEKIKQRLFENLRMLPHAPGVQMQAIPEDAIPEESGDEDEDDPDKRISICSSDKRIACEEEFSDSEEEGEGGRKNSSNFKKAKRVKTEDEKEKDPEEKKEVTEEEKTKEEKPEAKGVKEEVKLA
protein,measurement,value
B1,deacetylase activity of HDAC1 precipitates,"In the presence of SENP1, the deacetylase activity of HDAC1 precipitates had a 70% reduction"
